Results: the supplement of paper PMC10266784

B1: library; numbered along this chain (parent)
chain: MAAAAAAAAEQQSSNGPVKKSMREKAVERRSVNKEHNSNFKAGYIPIDEDRLHKTGLRGRKGNLAICVIILLFILAVINLIITLVIWAVIRIGPNGCDSMEFHESGLLRFKQVSDMGVIHPLYKSTVGGRRNENLVITGNNQPIVFQQGTTKLSVENNKTSITSDIGMQFFDPRTQNILFSTDYETHEFHLPSGVKSLNVQKASTERITSNATSDLNIKVDGRAIVRGNEGVFIMGKTIEFHMGGNMELKAENSIILNGSVMVSTTRLPSSSSGDQLGSGDWVRYKLCMCADGTLFKVQVTSQNMGCQISDNPCGNTH

Variants of: B1
Assay: SGCB cell-surface expression functional score (HA stain, bin4 vs bin1, normalised to synonymous) (log10 ratio); higher = more cell-surface SGCB (functional)
How it was run: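 The functional score is a log ratio of variant frequency in the highest versus the lowest intensity bin, expressed as a median over codons and duplicate transductions. Codon-saturation libraries of HA-tagged, YFP-fused human beta-sarcoglycan were transduced by lentivirus at MOI <0.1 into HEK293 cells stably expressing alpha-, gamma- and delta-sarcoglycan, and the cells were stained on ice with Alexa Fluor 647 anti-HA, fixed and sorted into four 5% intensity bins before amplicon sequencing. Synonymous variants were scaled to mean 0, SD 0.5 within each section.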

In order of falling “SGCB cell-surface expression functional score (log10)” value:
1. T238R  0.94
2. I45D  0.9
3. D221W  0.8
4. D48M  0.77
5. G259T  0.55
6. I70V  0.53
7. T294G  0.5
8. G236Q  0.48
9. N316H  0.47
10. S197W  0.4
11. N134H  0.34
12. V118I  0.32
13. P46F  0.22
14. K34L  0.21
15. Q142W  0.21
16. V155L  0.18
17. D48P  0.18
18. G278S  0.15
19. A26W  0.15
20. K19I  0.14
21. V283G  0.12
22. G280S  0.11
23. R58F  0.09
24. R130H  0.08
25. L295T  0.03
26. P46Y  0.03
27. I66W  0.01
28. P173E  0
29. E230P  -0.01
30. M247Q  -0.04
31. T55V  -0.07
32. E156F  -0.1
33. V85H  -0.11
34. G139A  -0.13
35. N37V  -0.13
36. P121H  -0.14
37. G245F  -0.16
38. E24Y  -0.19
39. K61P  -0.2
40. V77W  -0.2
41. V85S  -0.2
42. N158I  -0.21
43. L72A  -0.23
44. I309K  -0.24
45. N141V  -0.25
46. L52K  -0.26
47. T317V  -0.26
48. Q147D  -0.27
49. P94E  -0.29
50. E24C  -0.3
51. T126P  -0.31
52. S38A  -0.36
53. G56Q  -0.39
54. F296D  -0.42
55. G93W  -0.45
56. N312Q  -0.46
57. G149C  -0.49
58. Q11I  -0.5
59. N134Q  -0.54
60. R109K  -0.59
61. H187F  -0.63
62. T238P  -0.64
63. H242P  -0.67
64. I144H  -0.73
65. V155E  -0.74
66. I137W  -0.8
67. K286G  -0.81
68. L198C  -0.88
69. C314R  -1.01
70. F296E  -1.06
71. A88P  -1.07
72. I239S  -1.1
73. V261H  -1.2
74. L287R  -1.38
75. F180S  -1.41
76. G259W  -1.53
77. L108D  -1.53
78. M289W  -1.6
79. V200G  -1.65
80. L191A  -1.71
81. A251K  -1.77
82. M168Y  -1.79
83. C314M  -1.88
84. G106C  -1.9
